The record followed here is US20240254229A1 (Molecular Partners, published 2024).

Experiment [1] has as its target T1, human CD3 on primary human pan-T cells (human, UniProt P07766 23-207; P09693 23-182; P04234 22-171; P20963 22-164).
T1 construct: whole, on cells; Native complex on T cells isolated from PBMC; also called CD3 on Pan-T cells
The experiment in a line: Mirrorball laser scanning cytometry on primary human pan-T cells, anti-penta-His Alexa Fluor 488 detection, 600 µM HSA. On the procedure: (§1) The determination of CD3 binding was performed with primary human T cells using Mirrorball laser scanning imaging cytometry. Therefore, primary T cells were isolated from human peripheral blood mononuclear cells (PBMCs) using a pan-T cell purification kit (Miltenyi Biotec). A titration of DARPin® protein #7, DARPin® protein #8 and DARPin® protein #9 and DARPin® protein #10, formatted into a trispecific format (including CD33 and CD123 binding ankyrin repeat domains), DARPin® protein #11, DARPin® protein #12, DARPin® protein #13 and DARPin® protein #14 UN tetraspecific format (including an additional ankyrin repeat domain binding specifically to human serum albumin) were incubated with 50′000 pan-T cells per well in presence of 600 μM human serum albumin (to mimic physiological serum concentration) for 30 minutes at 4° C. Two benchmark T-cell engagers, AMG330 and flotetuzumab were applied as controls, targeting CD33 or CD123. After washing, CD3 binding was detected by 1:100-diluted anti-penta-His Alexa Fluor 488 antibody (Qiagen). After 30 min incubation at 4° C., cells were washed and resuspended in Cytofix fixation buffer (BD Biosciences) and counterstained by 5 μM DRAQ5 (Abcam) for 15 min at RT. Median of mean fluorescence intensities of Alexa Fluor 488 binding on far-red counterstained cells were measured by Mirrorball using Cellista software (SPT Labtech) and data was plotted using GraphPad Prism 8.

Experiment [2] concerns the target T1, human CD3 on primary human pan-T cells. The experiment in a line: Mirrorball cytometry on primary human pan-T cells, 600 µM HSA. The method, then:
as §1, with “of T cell” for “of CD3”, “protein #27,” for “protein #7,”, “protein #28” for “protein #8”, “protein #29” for “protein #9”, “protein #30” for “protein #10, formatted into a trispecific format (including CD33 and CD123 binding ankyrin repeat domains), DARPin® protein #11, DARPin® protein #12, DARPin® protein #13 and DARPin® protein #14 UN tetraspecific format (including an additional ankyrin repeat domain binding specifically to human serum albumin)”

The target of experiment [3] is T2, biotinylated extracellular domain of human CD123 (SEQ ID NO: 88), Fc and Avi tagged (human, UniProt P26951 19-303, biotinylated with BirA-GST (Avi tag)).
T2 construct: also called hCD123
T2 sequence: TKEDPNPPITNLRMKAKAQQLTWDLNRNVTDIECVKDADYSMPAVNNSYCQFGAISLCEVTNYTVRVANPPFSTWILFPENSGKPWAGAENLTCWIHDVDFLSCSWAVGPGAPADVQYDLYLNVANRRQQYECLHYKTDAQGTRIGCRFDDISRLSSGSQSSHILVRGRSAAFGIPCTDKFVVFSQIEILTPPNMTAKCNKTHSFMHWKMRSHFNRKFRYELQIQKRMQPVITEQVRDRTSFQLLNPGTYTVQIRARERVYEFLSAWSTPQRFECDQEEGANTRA
The experiment in a line: SPR (ProteOn XPR36), target on GLC chip.

For another experiment, the target named is T3, human serum albumin (human, UniProt P02768 25-609).
T3 construct: also called HSA; SA
The experiment in a line: SPR (ProteOn XPR36), target on GLC chip.

Experiment [4] concerns the target T4, biotinylated extracellular domain of human CD33 (SEQ ID NO: 87), Fc and Avi tagged (human, UniProt P20138 18-259, biotinylated with BirA-GST (Avi tag)).
T4 construct: also called hCD33; human target hCD33
The experiment in a line: SPR (ProteOn XPR36), target on GLC chip, DARPin as analyte.

Experiment [5] addresses T5, extracellular domain of human CD70 (SEQ ID NO: 89), hCD70-Fc-trimer, ACRO Biosystems (human, UniProt P32970 52-193, chemically biotinylated where the biotinylated form was used).
T5 construct: also called human CD70-Fc-trimer; Bio.CD70
T5 sequence: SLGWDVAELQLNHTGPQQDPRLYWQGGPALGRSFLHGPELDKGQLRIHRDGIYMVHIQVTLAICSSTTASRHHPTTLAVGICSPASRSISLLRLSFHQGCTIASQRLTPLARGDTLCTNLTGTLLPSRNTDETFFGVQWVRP
The description is as above.

T1 sequence (P07766 23-207, chain 1 of 4): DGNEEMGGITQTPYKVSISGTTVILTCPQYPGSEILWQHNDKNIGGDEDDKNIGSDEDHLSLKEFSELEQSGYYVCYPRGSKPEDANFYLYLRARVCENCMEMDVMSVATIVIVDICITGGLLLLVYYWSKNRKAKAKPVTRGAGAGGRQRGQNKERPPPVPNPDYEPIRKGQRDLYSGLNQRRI
T1 sequence (P09693 23-182, chain 2 of 4): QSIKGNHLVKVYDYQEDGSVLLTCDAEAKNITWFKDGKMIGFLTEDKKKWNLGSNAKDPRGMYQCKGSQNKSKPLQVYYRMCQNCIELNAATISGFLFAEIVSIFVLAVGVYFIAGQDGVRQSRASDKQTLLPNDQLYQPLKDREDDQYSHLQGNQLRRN
T1 sequence (P04234 22-171, chain 3 of 4): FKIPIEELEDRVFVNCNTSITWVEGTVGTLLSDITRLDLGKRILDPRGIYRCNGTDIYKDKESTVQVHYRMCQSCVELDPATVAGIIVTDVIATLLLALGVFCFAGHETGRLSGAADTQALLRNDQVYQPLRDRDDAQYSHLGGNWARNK
T1 sequence (P20963 22-164, chain 4 of 4): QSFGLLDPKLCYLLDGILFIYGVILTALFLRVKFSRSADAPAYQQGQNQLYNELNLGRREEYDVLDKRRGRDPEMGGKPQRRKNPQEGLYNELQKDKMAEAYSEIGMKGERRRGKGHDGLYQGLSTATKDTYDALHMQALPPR
T3 sequence (P02768 25-609 limits assumed): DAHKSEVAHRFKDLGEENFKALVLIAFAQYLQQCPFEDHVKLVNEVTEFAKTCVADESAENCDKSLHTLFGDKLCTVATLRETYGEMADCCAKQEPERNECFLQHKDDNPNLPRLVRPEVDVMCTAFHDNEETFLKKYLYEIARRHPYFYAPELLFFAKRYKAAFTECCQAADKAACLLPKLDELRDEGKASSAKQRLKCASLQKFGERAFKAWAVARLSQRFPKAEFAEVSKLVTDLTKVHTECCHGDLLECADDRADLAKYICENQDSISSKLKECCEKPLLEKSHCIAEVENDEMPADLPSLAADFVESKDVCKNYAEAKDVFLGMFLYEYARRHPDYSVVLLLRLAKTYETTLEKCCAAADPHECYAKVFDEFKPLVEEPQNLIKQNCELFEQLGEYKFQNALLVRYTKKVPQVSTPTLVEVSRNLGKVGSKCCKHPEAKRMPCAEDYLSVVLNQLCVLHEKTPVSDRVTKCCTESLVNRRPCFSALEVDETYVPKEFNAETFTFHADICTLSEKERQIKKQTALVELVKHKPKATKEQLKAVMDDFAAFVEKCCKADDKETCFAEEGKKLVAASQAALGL
T4 sequence (P20138 18-259 R69G): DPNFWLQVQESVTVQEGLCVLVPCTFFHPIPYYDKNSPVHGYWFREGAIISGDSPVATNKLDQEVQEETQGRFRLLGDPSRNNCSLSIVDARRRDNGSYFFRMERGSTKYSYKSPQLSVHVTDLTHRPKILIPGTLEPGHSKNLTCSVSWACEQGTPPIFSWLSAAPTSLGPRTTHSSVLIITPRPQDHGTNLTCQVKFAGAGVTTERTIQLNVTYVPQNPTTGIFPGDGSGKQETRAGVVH

B1: DARPin® protein #7 (designed binder)
chain: DLGKKLLEAARAGQDDEVRILMANGADVNALDWLGHTPLHLAAYEGHLEIVEVLLKNGADVNAIDDNNGFTPLHLAAIDGHLEIVEVLLKNGADVNAQDKFGKTAFDISIDNGNEDLAEILQKAAGSPTPTPTTPTPTPTTPTPTPTGSDLGDKLLLAATSGQDDEVRILLAAGADVNAKDYDGDTPLHLAADEGHLEIVEVLLKAGADVNAKDYSGSTPLHAAAAYGHLEIVEVLLKAGADVNAQDVFGYTPADLAAYVGHEDIAEVLQKAAGSPTPTPTTPTPTPTTPTPTPTGSDLGQKLLEAAWAGQDDEVRELLKAGADVNAKDSQGWTPLHTAAQTGHLEIFEVLLKAGADVNAKDDKGVTPLHLAAALGHLEIVEVLLKAGADVNAQDSWGTTPADLAAKYGHEDIAEVLQKAA
notes: CD123-CD33-CD3 ankyrin repeat protein, no half-life extension; also called DARPin® #7; not shown: N-terminal His-tag
Take B1: the binding result in experiment [1] is recorded as “no binding”.

B2: DARPin® protein #28 (designed binder)
chain: DLGYKLLQAAYDGQLDEVRILLKAGADVNAKDSRGQTPLHYAASIGHLEIVEVLLKAGADVNAKDDHGWTPLHLAAWSGHLEIVEVLLKAGADVNAQDQEGTTPADLAAVQGHQDIAEVLQKAAGSPTPTPTTPTPTPTTPTPTPTGSDLGWKLLLAASRGQDDEVRILLAAGADVNAKDIDEGYTPLHIAAYYGHLEIVEVLLKAGADVNAKDRYGKTPLHLAAISGHEDIAEVLLKAGADVNAQDDKGDTPADLAADYGHEDIAEVLQKAAGSPTPTPTTPTPTPTTPTPTPTGSDLGQKLLEAAWAGQDDEVRELLKAGADVNAKNSRGWTPLHTAAQTGHLEIFEVLLKAGADVNAKDDKGVTPLHLAAALGHLEIVEVLLKAGADVNAQDSWGTTPADLAAKYGHEDIAEVLQKAA
notes: CD70-CD33-CD3; not shown: His-tag implied by anti-penta-His detection
On to B2, for which the EC50 in experiment [2] turned out to be 1.41 nM.

B3: DARPin® protein #29 (designed binder)
chain: DLGYKLLQAAYDGQLDEVRILLKAGADVNAKDSRGQTPLHYAASIGHLEIVEVLLKAGADVNAKDDHGWTPLHLAAWSGHLEIVEVLLKAGADVNAQDQEGTTPADLAAVQGHQDIAEVLQKAAGSPTPTPTTPTPTPTTPTPTPTGSDLGVKLLLAASRGQLDEVRILLKAGADVNAKDIDEGYTPLHIAAYYGHLEIVEVLLKAGADVNAKDRYGKTPLHLAAISGHLEIVEVLLKAGADVNAQDDKGDTPADLAADYGHQDIAEVLQKAAGSPTPTPTTPTPTPTTPTPTPTGSDLGQKLLEAAWAGQDDEVRELLKAGADVNAKNSRGWTPLHTAAQTGHLEIFEVLLKAGADVNAKDDKGVTPLHLAAALGHLEIVEVLLKAGADVNAQDSWGTTPADLAAKYGHEDIAEVLQKAA
notes: CD70-CD33-CD3; not shown: N-terminal His-tag
For B3, the binding result (in experiment [3]; with human serum albumin) was “no binding (tested: 100 nM (highest concentration))” throughout. Also, the Kd in experiment [4] worked out at 4.8 nM; in experiment [5], 0.18 nM. The response in experiment [2] was half-maximal at 1.97 nM (EC50).

B4: DARPin® protein #30 (designed binder)
chain: DLGYKLLQAAYDGQLDEVRILLKAGADVNAKDSRGQTPLHYAASIGHLEIVEVLLKAGADVNAKDDHGWTPLHLAAWSGHLEIVEVLLKAGADVNAQDQEGTTPADLAAVQGHQDIAEVLQKAAGSPTPTPTTPTPTPTTPTPTPTGSDLGKKLLEAALEGQDDEVRELLKAGADVNAKDQEGYTPLHLAAALGHLEIVEVLLKAGADVNAKDSIGRTPLHLAAYKGHLEIVEVLLKAGADVNAQDLLGETPADLAAEQGHEDIAEVLQKAAGSPTPTPTTPTPTPTTPTPTPTGSDLGVKLLRAAFHGQDDEVRILLAAGADVNAKDTDGETPLHYAAQFGHLEIVEVLLKAGADVNAKDAYGATPLHWAAWHGHLEIVEVLLKAGADVNAQDVSGATPADLAAKVGHEDIAEVLQKAAGSPTPTPTTPTPTPTTPTPTPTGSDLGQKLLEAAWAGQDDEVRELLKAGADVNAKNSRGWTPLHTAAQTGHLEIFEVLLKAGADVNAKDDKGVTPLHLAAALGHLEIVEVLLKAGADVNAQDSWGTTPADLAAKYGHEDIAEVLQKAA
notes: CD70-CD123-CD33-CD3; not shown: His-tag implied by anti-penta-His detection
Molecule B4 had an EC50 in experiment [2] of 1.8 nM.

B5: DARPin® protein 11 (designed binder)
single chain: DLGKKLLEAARAGQDDEVRELLKAGADVNAKDYFSHTPLHLAARNGHLKIVEVLLKAGADVNAKDFAGKTPLHLAAADGHLEIVEVLLKAGADVNAQDIFGKTPADIAADAGHEDIAEVLQKAAGSPTPTPTTPTPTPTTPTPTPTGSDLGKKLLEAARAGQDDEVRILMANGADVNALDWLGHTPLHLAAYEGHLEIVEVLLKNGADVNAIDDNNGFTPLHLAAIDGHLEIVEVLLKNGADVNAQDKFGKTAFDISIDNGNEDLAEILQKAAGSPTPTPTTPTPTPTTPTPTPTGSDLGDKLLLAATSGQDDEVRILLAAGADVNAKDYDGDTPLHLAADEGHLEIVEVLLKAGADVNAKDYSGSTPLHAAAAYGHLEIVEVLLKAGADVNAQDVFGYTPADLAAYVGHEDIAEVLQKAAGSPTPTPTTPTPTPTTPTPTPTGSDLGQKLLEAAWAGQDDEVRELLKAGADVNAKDSQGWTPLHTAAQTGHLEIFEVLLKAGADVNAKDDKGVTPLHLAAALGHLEIVEVLLKAGADVNAQDSWGTTPADLAAKYGHEDIAEVLQKAA
notes: half-life extended format of DARPin® protein #7; also called HSA-CD123-CD33-CD3
For the molecule B5, the binding result in experiment [1] was “no binding (tested: about 3000 nM)”.

B6: DARPin® protein #14 (designed binder)
chain: DLGKKLLEAARAGQDDEVRELLKAGADVNAKDYFSHTPLHLAARNGHLKIVEVLLKAGADVNAKDFAGKTPLHLAAADGHLEIVEVLLKAGADVNAQDIFGKTPADIAADAGHEDIAEVLQKAAGSPTPTPTTPTPTPTTPTPTPTGSDLGKKLLEAARAGQDDEVRILMANGADVNALDWLGHTPLHLAAYEGHLEIVEVLLKNGADVNAIDDNNGFTPLHLAAIDGHLEIVEVLLKNGADVNAQDKFGKTAFDISIDNGNEDLAEILQKAAGSPTPTPTTPTPTPTTPTPTPTGSDLGDKLLLAATSGQDDEVRILLAAGADVNAKDYDGDTPLHLAADEGHLEIVEVLLKAGADVNAKDYSGSTPLHAAAAYGHLEIVEVLLKAGADVNAQDVFGYTPADLAAYVGHEDIAEVLQKAAGSPTPTPTTPTPTPTTPTPTPTGSDLGQKLLEAAWAGQLDEVRILLKAGADVNAKNSRGWTPLHTAAQTGHLEIFEVLLKAGADVNAKTNKRVTPLHLAAALGHLEIVEVLLKAGADVNARDTWGTTPADLAAKYGHRDIAEVLQKAA
notes: HSA-CD123-CD33-CD3, half-life extended form of #10; not shown: His-tag implied by anti-penta-His detection
In the case of B6, the “EC50 (read off the curve)” value in experiment [1] was around 20 nM.
